Measured values from patent US20250282874A1 (SUZHOU TRANSCENTA THERAPEUTICS, published 2025).
Where a chain is given by its changes, count along the chain named.

B1: 4B6 scFv variant L-CDR1-1 (scFv)
scFv: DIQMTQSPSSLSASVGDRVTITCKASQNVGAIVAWYQQKPGKAPKLLIYSASNRYTGVPSRFSGSGSGTDFTLTISSLQPEDIATYYCQQYSNYPTFGQGTKLEIKGGGGSGGGGSGGGGSQVQLVQSGAEVKKPGASVKVSCKASGYVFTDYYMNWVRQAPGQSLEWMGDINPNNAGTSYNHKFKGRVTVTVDKSISTAYMELSRLRSDDTAVYYCVKWGDGPFAYWGQGTLVTVSS
notes: also called 4B6-L-CDR1-1
B2: 4B6 scFv variant H-CDR2-2 (scFv)
scFv: B1 scFv with I32A, G178Q, S180Q
notes: also called 4B6-H-CDR2-2
B3: 4B6 scFv variant H-CDR2-1 (scFv)
scFv: B1 scFv with I32A, G178D, S180M
notes: also called 4B6-H-CDR2-1
B4: 4B6 scFv variant H-CDR2-4 (scFv)
scFv: B1 scFv with I32A, A177G, G178L
notes: also called 4B6-H-CDR2-4
B5: 4B6 scFv variant H-CDR2-3 (scFv)
scFv: B1 scFv with I32A, G178E, S180L
notes: also called 4B6-H-CDR2-3
B6: 4B6 scFv variant H-CDR2-5 (scFv)
scFv: B1 scFv with I32A, G178Q, S180V
notes: also called 4B6-H-CDR2-5
B7: 4B6-HgLa scFv (wild-type sequence for affinity maturation) (scFv)
scFv: B1 scFv with I32A
notes: written VL-linker-VH; also called L-CDR1-WT; L-CDR2-WT
B8: Chimeri 4B6 (antibody, V domains shown)
VH: EVQLQQSGPELVKPGASVKISCKASGYVFTDYYMNWVKQSHGKSLEWIGDINPNNGGTSYNHKFKGKATVTVDKSSRTAYMELLSLTSEDSAVYYCVKWGDGPFAYWGQGTLVTVSA
VL: DIVMTQSQKFMSTSVGDRVSITCKASQNVGAAVAWYQQKPGQSPKLLIYSASNRYTGVPDRFTGSGSGTDFTLTISNMQSEDLADYFCQQYSNYPTFGSGTKLGIK
notes: spelling as printed; also called chimeric 4B6; mouse/chimeric antibody 4B6
B9: Hu4B6_HbLa (antibody, human IgG1, V domains shown)
VH: QVQLVQSGAEVKKPGASVKVSCKASGYTFTDYYMNWVRQAPGQGLEWMGDINPNNGGTSYNHKFKGRVTVTVDTSISTAYMELSRLRSDDTAVYYCVKWGDGPFAYWGQGTLVTVSS
VL: DIQMTQSPSSLSASVGDRVTITCKASQNVGAAVAWYQQKPGKAPKLLIYSASNRYTGVPSRFSGSGSGTDFTLTISSLQPEDIATYYCQQYSNYPTFGQGTKLEIK
B10: Hu4B6_HdLb (antibody, human IgG1, V domains shown)
VH: B9 VH with T28V, G44S, T74K
VL: B9 VL with A43S, S60D
B11: Hu4B6_HaLb (antibody, human IgG1, V domains shown)
VH: B9 VH with V97A, K98R
VL: B9 VL with A43S, S60D
B12: Hu4B6_HcLb (antibody, human IgG1, V domains shown)
VH: B9 VH with T28V, T74K, V97A, K98R
VL: B9 VL with A43S, S60D
B13: Hu4B6_HcLa (antibody, human IgG1, V domains shown)
VH: B9 VH with T28V, T74K, V97A, K98R
VL: B9 VL
B14: Hu4B6_HbLb (antibody, human IgG1, V domains shown)
VH: B9 VH
VL: B9 VL with A43S, S60D
B15: Hu4B6_HaLa (antibody, human IgG1, V domains shown)
VH: B9 VH with V97A, K98R
VL: B9 VL

molecular target: T1, human PD-L1-Fc (human, UniProt Q9NZQ7 19-239); assay: BLI; against L-CDR1-WT
T1 construct: also called hPD-L1-Fc; human PD-L1-Fc (Sino Biological, 70110-D02H); not shown: Fc part

Fold increase | Binder
4.08 fold | B1

molecular target: T1, human PD-L1-Fc; assay: BLI; against H-CDR2-WT (G55A)

Fold increase | Binder
11 fold | B2
7.6 fold | B3
6.03 fold | B4
11 fold | B5
11.1 fold | B6

molecular target: T1, human PD-L1-Fc; assay: BLI; PD-L1-Fc loaded on the sensor, scFv in solution

Kd | kon | Binder
28.2 nM | 35800 M⁻¹ s⁻¹ | B7
6.91 nM | 41200 M⁻¹ s⁻¹ | B1

molecular target: T1, human PD-L1-Fc; assay: as above; remark: another data set of the same source

Kd | kon | Binder
27.6 nM | 38100 M⁻¹ s⁻¹ | B7

molecular target: T1, human PD-L1-Fc; assay: as above; remark: another data set of the same source

Kd | kon | Binder
26.7 nM | 46300 M⁻¹ s⁻¹ | B7
2.42 nM | 101000 M⁻¹ s⁻¹ | B2
3.52 nM | 141000 M⁻¹ s⁻¹ | B3
4.43 nM | 117000 M⁻¹ s⁻¹ | B4
2.43 nM | 116000 M⁻¹ s⁻¹ | B5
2.4 nM | 102000 M⁻¹ s⁻¹ | B6

molecular target: T2, human PD-L1-His (human, UniProt Q9NZQ7 19-238, limits assumed); assay: ELISA, human PD-L1-His coated, anti-human IgG-HRP, OD450
T2 construct: not shown: His tag

EC50 | Binder
2.05 nM | B8
2.38 nM | B9
1.47 nM | B10
6.26 nM | B11
3.44 nM | B12
5.74 nM | B13
2.81 nM | B14
5.16 nM | B15
